Reference: patent publication US20220017620A1 (SHANGHAI FUDAN ZHANGJIANG BIO PHARMACEUTICAL, published 2022)

Experiments:
[1] = biological target: T1, B7-H3 on B7-H3 transfected CHO cells; assay: cell-based ELISA on B7-H3 transfected CHO-K1 cells
T1 construct: whole, on cells; also called CHO cells transfected with B7-H3
T1 sequence (Q5ZPR3 1-534, species assumed, looked up): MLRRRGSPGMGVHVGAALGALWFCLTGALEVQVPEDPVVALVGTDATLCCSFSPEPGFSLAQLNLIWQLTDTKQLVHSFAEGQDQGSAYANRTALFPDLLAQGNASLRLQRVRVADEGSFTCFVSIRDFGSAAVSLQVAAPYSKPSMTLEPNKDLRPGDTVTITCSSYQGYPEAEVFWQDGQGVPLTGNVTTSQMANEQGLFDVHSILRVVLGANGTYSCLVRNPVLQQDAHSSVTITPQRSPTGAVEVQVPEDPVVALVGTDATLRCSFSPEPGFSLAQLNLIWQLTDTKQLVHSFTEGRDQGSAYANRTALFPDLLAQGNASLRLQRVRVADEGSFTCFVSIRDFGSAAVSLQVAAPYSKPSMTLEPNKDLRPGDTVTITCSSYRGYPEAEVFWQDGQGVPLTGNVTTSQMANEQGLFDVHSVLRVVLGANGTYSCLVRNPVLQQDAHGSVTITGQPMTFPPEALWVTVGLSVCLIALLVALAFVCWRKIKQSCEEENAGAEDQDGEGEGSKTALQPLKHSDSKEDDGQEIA

[2] = biological target: T2, 4Ig B7-H3 (soluble human B7-H3 protein with 435 amino acids) (human, UniProt Q5ZPR3 27-461, limits assumed); assay: SPR, BIAcore T200, antibody amine-coupled to the chip, antigen as analyte, 1:1 Langmuir fit
T2 construct: also called 4Ig-B7H3 antigen; B7H3/4Ig
T2 sequence: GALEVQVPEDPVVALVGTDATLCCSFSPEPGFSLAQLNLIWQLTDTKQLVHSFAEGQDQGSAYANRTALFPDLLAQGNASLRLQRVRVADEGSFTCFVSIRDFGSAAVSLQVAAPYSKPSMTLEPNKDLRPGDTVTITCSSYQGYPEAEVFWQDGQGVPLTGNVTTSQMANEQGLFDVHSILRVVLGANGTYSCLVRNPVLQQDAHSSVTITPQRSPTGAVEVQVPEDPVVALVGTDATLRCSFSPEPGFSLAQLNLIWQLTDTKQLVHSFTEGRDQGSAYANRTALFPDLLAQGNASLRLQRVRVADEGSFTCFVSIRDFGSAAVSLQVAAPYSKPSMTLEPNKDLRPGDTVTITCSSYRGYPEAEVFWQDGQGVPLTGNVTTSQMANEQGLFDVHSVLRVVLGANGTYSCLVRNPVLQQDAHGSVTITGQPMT
Method: SPR detection was performed with BIAcore T200 (GE) system. Series Sensor Chip CMS and the amine coupling kit for immobilization were purchased from GE.
The B7-H3 antigen was diluted with HBS-EP buffer in a certain proportion to concentration gradients of 0 nM, 0.15625 nM, 0.3125 nM, 0.625 nM, 1.25 nM (two replicates), 2.5 nM, 5 nM, 10 nM, 20 nM, the flow rate was set to 30 μL/min, the binding time was set to 120 s, and the dissociation time was set to 1800 s for sample analysis. For regeneration, Gly-HCl buffer (pH 1.5) could be used as a regeneration buffer, the flow rate was set to 30 μL/min, and regeneration was performed for 30 s. The experiment adopted multi-cycle operation, for the response signal, the analysis time was set as the abscissa and the response value was set as the ordinate. The obtained data was fitted by BIAcore T200 analysis software. The fitting model used was 1:1 Langmuir binding model, and the kinetic constants such as the binding rate constant, the dissociation rate constant, and the binding and dissociation constant were determined.

[3] = biological target: T3, 2Ig B7-H3 (soluble human B7-H3 with 217 amino acids) (human, UniProt Q5ZPR3 29-463); assay: ELISA on coated antigen, IgG1 antibody
T3 construct: also called 2IgB7-H3 domain
T3 sequence: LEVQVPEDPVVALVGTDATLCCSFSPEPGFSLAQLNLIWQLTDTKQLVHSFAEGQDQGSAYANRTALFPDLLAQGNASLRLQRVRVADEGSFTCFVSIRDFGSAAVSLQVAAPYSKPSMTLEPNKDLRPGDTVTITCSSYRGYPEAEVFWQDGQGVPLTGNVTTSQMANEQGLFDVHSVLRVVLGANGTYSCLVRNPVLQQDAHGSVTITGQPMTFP
Method: (§1) Protein binding: 100 μL of antigen B7-H3 (R&D) at 20 ng/ml was coated onto microplate, incubated at 2-8° C. overnight. Subsequently, 100 μL of the prepared full-length IgG1 antibody described above was added with a total of 8 concentrations started from 2000 ng/ml and serially diluted with 3-fold, incubating at 37° C., 600 rpm for 1 hour. After the plate was washed for three times, Goat anti human IgG (Fc)-HRP enzyme-linked antibody was added and the plate was shook at 37° C. and 600 rpm for 1 hour. After the plate was washed for 4 times, TMB chromogenic solution was aliquoted in and incubated for 10 minutes, then 1 mol/L […] stop solution at 100 μL/well was aliquoted to stop the reaction and the absorbance was measured.

[4] = biological target: T4, IgV domain of B7-H3 (human, UniProt Q5ZPR3 30-130); assay: ELISA on coated antigen, IgG1 antibody
T4 sequence: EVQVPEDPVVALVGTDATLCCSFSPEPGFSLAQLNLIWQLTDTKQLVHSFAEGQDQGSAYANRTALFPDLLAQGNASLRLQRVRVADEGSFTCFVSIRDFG
Method: as §1

[5] = biological target: T2, 4Ig B7-H3 (soluble human B7-H3 protein …); assay: ELISA on coated antigen, IgG1 antibody
Method: as §1

[6] = biological target: T5, IgC domain of B7-H3 (human, UniProt Q5ZPR3 141-242); assay: ELISA on coated antigen, IgG1 antibody
T5 sequence: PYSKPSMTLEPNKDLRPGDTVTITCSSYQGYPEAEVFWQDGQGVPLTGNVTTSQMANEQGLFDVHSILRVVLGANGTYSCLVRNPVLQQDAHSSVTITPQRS
Method: as §1

[7] = biological target: T6, antigen B7-H3 (R&D); assay: ELISA on coated B7-H3
T6 construct: construct not described; also called B7-H3 protein; coated B7-H3 protein
T6 sequence (Q5ZPR3 whole entry, species assumed, looked up): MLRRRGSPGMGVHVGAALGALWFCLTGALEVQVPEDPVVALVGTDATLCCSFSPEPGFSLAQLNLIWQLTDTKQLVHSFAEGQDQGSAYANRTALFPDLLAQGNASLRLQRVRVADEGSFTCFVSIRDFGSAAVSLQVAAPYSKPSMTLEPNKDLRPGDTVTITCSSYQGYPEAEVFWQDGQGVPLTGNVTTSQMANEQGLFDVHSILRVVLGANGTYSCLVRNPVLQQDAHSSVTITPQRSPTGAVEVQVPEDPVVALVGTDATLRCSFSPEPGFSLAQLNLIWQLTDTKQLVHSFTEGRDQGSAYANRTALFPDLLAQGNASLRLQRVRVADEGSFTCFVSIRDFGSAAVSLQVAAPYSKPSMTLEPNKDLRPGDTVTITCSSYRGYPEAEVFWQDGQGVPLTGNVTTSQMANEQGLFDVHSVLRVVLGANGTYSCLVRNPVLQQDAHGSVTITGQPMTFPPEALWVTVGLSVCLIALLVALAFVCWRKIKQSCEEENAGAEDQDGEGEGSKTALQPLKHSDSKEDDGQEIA
Method: as §1

[8] = biological target: T4, IgV domain of B7-H3; assay: ELISA on B7-H3 domains, IgG1 antibody
Method: as §1

B1: P2E5 full-length IgG1 antibody (antibody, V domains shown)
VH: QVTLKESGGGLVQPGGSLRLSCAASGFTFSNSYMTWVRQAPGMGLEWVASMKPDGSVKHYVDSVKGRFTISRDNTKNSLDLQMNSLRAEDTAVYYCSSYDTRWGWFDPWGEGTLVTVSS
VL: QTVVTQEPSFSVSPGGTVTLTCGLNSGSVSTSYFPSWYQQTPGQAPRTLIYNTNTRSSGVPDRFSGSILGNKAALTITGAQADDESDYYCLLYMDSGPHWVFGGGTKLTVL
notes: also called biotin-P2E5
EC50 (read off the curve) [1]: ~0.02 µg/mL
Kd [2]: 2400 pM
koff [2]: 5.9e-05 s⁻¹
kon [2]: 42500 M⁻¹ s⁻¹
ELISA signal value [3]: 0.3 to 0.5 elisasignalvalue
ELISA signal value [4]: 0.3 to 0.5 elisasignalvalue
ELISA signal value [5]: 0.6 to 1.5 elisasignalvalue
ELISA signal value [6]: 0.3 to 0.5 elisasignalvalue

B2: P3H6 full-length IgG1 antibody (antibody, V domains shown)
VH: QVQLVQSGAEVKKPGESLKISCKGSGYSFSNYWIGWVRQMPGKGLEWMGIIYPGDSDTRYSPSFQGQVTISADKSISTAYLQWSSLKASDTAMYYCARSRGYPTNYMDVWGRGTTVTVSS
VL: QAVLTQPPSVSGAPRQRVTISCSGSSSNIGNNIVSWYQHLPGKAPRLLIYRERQRPSGVPDRFSGSKSGTSASLAISGLRSEDEADYYCATWDDSLNSWVFGGGTKLTVL
EC50 (read off the curve) [7]: ~0.1 µg/mL
ELISA signal value [4]: 1.6 to 3 elisasignalvalue

B3: P1E11 full-length IgG1 antibody (antibody, V domains shown)
VH: not shown
VL: EIVLTQSPLSLPVTLGQPASISCRSSQSLVHSDGNTYLNWFQQRPGQSPRRLIYKVSNRDSGVPDRFSGSGSGTDFTLKISRVEAEDVGFYYCMQGTHWPPGTFGQGTKLEIK
notes: also called biotin-P1E11
binding result [8]: no binding (tested: ELISA signal value 0.1~0.2)
Kd [2]: 24.8 pM
koff [2]: 7.76e-05 s⁻¹
kon [2]: 3.13e+06 M⁻¹ s⁻¹
ELISA signal value [3]: 1.6 to 3 elisasignalvalue
ELISA signal value [6]: 0.6 to 1.5 elisasignalvalue

B4: P1G2 full-length IgG1 antibody (antibody, V domains shown)
VH: QVQLQQSGAEVKKPGSSVKVSCKASGGTFSSYAISWVRQAPGQGLEWMGRIIPILGIANYAQKFQGRVTITADKSTSTAYMELSSLRSEDTAVYYCAVNYYDSSGYYSDYWGQGTLVTVSS
VL: SYELTQPPSASGSPGQSVTISCTGTSSDVGGYNYVSWYQQHPGKAPRLMIYGVSQRPSGVPDRFSGSKSGNTASLTVSGLQAEDEADYYCSSYANNNYVFGTGTKVTVL
Kd [2]: 230 pM
koff [2]: 0.00167 s⁻¹
kon [2]: 7.26e+06 M⁻¹ s⁻¹
ELISA signal value [3]: 0.6 to 1.5 elisasignalvalue
ELISA signal value [4]: 0.3 to 0.5 elisasignalvalue
ELISA signal value [5]: 1.6 to 3 elisasignalvalue
ELISA signal value [6]: 0.3 to 0.5 elisasignalvalue
